Tests used:
His-TNFα-GFP [1] = target: T1, His-TNFα-GFP (Homo sapiens, UniProt P01375, biotin (conjugated for the Octet measurement only)); assay: BLI; ForteBio Octet; biotinylated TNFα-GFP (20 μg/mL) fixed on streptavidin (SA) biosensors; scFv in solution, 250-8000 nM for wild type and 31.25-1000 nM for mutant; association 120 s, dissociation 180 s; KD = Koff/Kon; conditions: both partners purified
T1 construct: TNFα, antigen of the anti-human TNFα scFv; The names His-TNFα-GFP and GFP-TNFα are both printed, so the side on which GFP stands is not certain; Probably the soluble form of TNFα (surmise); also called GFP-TNFα; source: E. coli containing the PET28a (+)-TNFα-GFP plasmid, purified with a Ni column

His-TNFα-GFP [2] = target: T1, His-TNFα-GFP; assay: flow cytometry on cells; scFv displayed on CHO cells, labelled with TNFα-GFP and PE-conjugated anti-HA antibody for 1/2 h at 4 °C; with or without 5% BSA (antigen binding much reduced without BSA); conditions: one partner purified

T1 sequence (P01375 whole entry): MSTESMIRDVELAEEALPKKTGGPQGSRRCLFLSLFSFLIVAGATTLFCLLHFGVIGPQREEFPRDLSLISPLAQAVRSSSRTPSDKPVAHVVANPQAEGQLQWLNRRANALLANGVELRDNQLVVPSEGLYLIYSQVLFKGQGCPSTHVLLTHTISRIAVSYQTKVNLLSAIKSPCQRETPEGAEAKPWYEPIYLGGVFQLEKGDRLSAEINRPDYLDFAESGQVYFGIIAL

| Binder | Kd (His-TNFα-GFP [1]) | koff (His-TNFα-GFP [1]) | kon (His-TNFα-GFP [1]) | binding result (His-TNFα-GFP [2]) |
| --- | --- | --- | --- | --- |
| Anti-human TNFα wild-type scFv (soluble, His-tagged) (scFv, V domains shown, scFv from Jie Tang (Institute of Biophysics, CAS); Theoretical mass with His tag about 25 kDa; also called αTNFα; anti-TNFα WT scFv; source: 293F cells, transfected, supernatant purified on a nickel column; not shown: His6, C-terminal, kept) VH: QLVQSGPELKKPGETVKISCKASGYTFTNYGMNWVKQAPGKGLKWMGWINTYTGEPTYADDFKGRFAFSLETSASTAYLQINNLKNEDSATYFCAGRRSYDYDVAMDYWGQGTSVTIS VL: DIVLTQSPASLAVSLGQRATISCRASESVDSYGNYFMHWYQQKPGQPPKLLIYRASNLESGIPARFSGSGSGTDFTLTINPVEADDVATYYCQQSNEEPLTFGSGTKLEIK | 1550 nM | 0.00873 s⁻¹ | 5620 M⁻¹ s⁻¹ |  |
| Anti-TNFα scFv mutant A115V displayed on CHO cells (scFv, V domains shown, Most enriched clone of the maturation under normal conditions (37 °C culture, 4 °C labelling); Display construct as m4; not shown: transmembrane peptide (TM), C-terminal, kept) VH: QLVQSGPELKKPGETVKISCKASGYTFTNYGMNWVKQAPGKGLKWMGWINTYTGEPTYADDFKGRFAFSLETSASTAYLQINNLKNEDSATYFCAGRRSYDYDVVMDYWGQGTSVTIS VL: DIVLTQSPASLAVSLGQRATISCRASESVDSYGNYFMHWYQQKPGQPPKLLIYRASNLESGIPARFSGSGSGTDFTLTINPVEADDVATYYCQQSNEEPLTFGSGTKLEIK |  |  |  | binds |
| Anti-TNFα scFv mutant G94R (soluble, His-tagged) (scFv, V domains shown, position 94 of the heavy chain in the Chothia scheme, right before heavy chain CDR3; Found by AID mutagenesis and sorting on thermo-resistant CHO cells; The base change is printed as G316A; also called G316A (base); G94R scFv; source: 293F cells, transfected, supernatant purified on a nickel column; not shown: His6, C-terminal, kept) VH: QLVQSGPELKKPGETVKISCKASGYTFTNYGMNWVKQAPGKGLKWMGWINTYTGEPTYADDFKGRFAFSLETSASTAYLQINNLKNEDSATYFCARRRSYDYDVAMDYWGQGTSVTIS VL: DIVLTQSPASLAVSLGQRATISCRASESVDSYGNYFMHWYQQKPGQPPKLLIYRASNLESGIPARFSGSGSGTDFTLTINPVEADDVATYYCQQSNEEPLTFGSGTKLEIK | 9.69 nM | 0.00159 s⁻¹ | 164000 M⁻¹ s⁻¹ |  |

— paper PMC9404881, “Simultaneous Maturation of Single Chain Antibody Stability and Affinity by CHO Cell Display” (Bioengineering, 2022)
